Experimental findings from patent US20260152568A1 (NECTIN THERAPEUTICS, published 2026) are described below.

Assay [1] addresses T1, human PVR (SPR of the humanized variants, Example 5) (human, UniProt P15151 21-343).
T1 sequence: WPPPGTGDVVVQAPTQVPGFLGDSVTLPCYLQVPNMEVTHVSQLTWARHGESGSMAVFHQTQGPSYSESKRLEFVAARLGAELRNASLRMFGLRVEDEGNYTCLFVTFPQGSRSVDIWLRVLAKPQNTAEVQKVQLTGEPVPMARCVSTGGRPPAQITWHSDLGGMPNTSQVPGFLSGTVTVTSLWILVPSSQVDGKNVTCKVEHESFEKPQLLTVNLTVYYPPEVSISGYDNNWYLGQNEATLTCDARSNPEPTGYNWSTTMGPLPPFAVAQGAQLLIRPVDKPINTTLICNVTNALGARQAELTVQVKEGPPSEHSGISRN
Kind of assay: SPR. On the technique in general: SPR reads the build-up and loss of mass on a sensor chip optically.

Assay [2] concerns the target T1, human PVR (SPR of the humanized …). In words: SPR; relative to N56E VH0/Vκ0.

B1: IgG4(S241P)_N56E_VH2/Vκ4 (antibody, V domains shown)
VH: QVQLVQSGAEVKKPGASVKISCKATGYTFSNYWIEWIKQAPGQGLEWIGEIFPGSGRINFNEKFKGRATFTADTSIDTTYMELSRLRSDDTAVYYCARTKIYGNSFDYWGQGTLVTVSS
VL: DIQMTQSPSSLSASVGDRVTITCRASQDVGTAVAWYQQKPGKAPKSLIYWASSRHEGVPSRFSGSGSGTDFTLTISSLQPEDFATYFCQQYSRYPLTFGQGTKLEIK
notes: humanized 5B9 variant with Vk4; also called VH2/Vk4
Take B1: in assay [1], the Kd (commonly a measure of binding affinity in units of concentration) was determined as 78.3 nM. Besides, the “Relative KD” value in assay [2] was 14.1.

B2: IgG4(S241P)_N56E_VH1/Vκ4 (antibody, V domains shown)
VH: QVQLVQSGAELKKPGASVKISCKATGYTFSNYWIEWIKQAPGQGLEWIGEIFPGSGRINFNEKFKGRATFTADTSIDTTYMQLSSLTSDDSAVYYCARTKIYGNSFDYWGQGTTVTVSS
VL: DIQMTQSPSSLSASVGDRVTITCRASQDVGTAVAWYQQKPGKAPKSLIYWASSRHEGVPSRFSGSGSGTDFTLTISSLQPEDFATYFCQQYSRYPLTFGQGTKLEIK
notes: humanized 5B9 variant with Vk4; also called VH1/Vk4
B2: the Kd in assay [1] was 69.3 nM. Moreover, in assay [2], the “Relative KD” value worked out at 12.5.

B3: humanized 5B9 variant VH1/VK1 (antibody, V domains shown)
VH: QVQLVQSGAELKKPGASVKISCKATGYTFSNYWIEWIKQAPGQGLEWIGEIFPGSGRINFNEKFKGRATFTADTSIDTTYMQLSSLTSDDSAVYYCARTKIYGNSFDYWGQGTTVTVSS
VL: DIMMTQSPSFLSASVGDRVTITCKASQDVGTAVVWYQQKPGKAPKLLIYWASSRHEGVPDRFTGSGSGTDFTLTISSLQSEDFADYFCQQYSRYPLTFGQGTKLEIK
As for B3, in assay [1], the Kd amounted to 4.17 nM. The “Relative KD” value in assay [2] worked out at 0.75.

B4: IgG4(S241P)_N56E_VH0/Vκ1 (antibody, V domains shown)
VH: QVQLQQSGAELMKPGASVKISCKATGYTFSNYWIEWIKQRPGHGLEWIGEIFPGSGRINFNEKFKGKATFTADTSSDTTYMQLSSLTSADSAVYYCARTKIYGNSFDYWGQGTTLTVSP
VL: DIMMTQSPSFLSASVGDRVTITCKASQDVGTAVVWYQQKPGKAPKLLIYWASSRHEGVPDRFTGSGSGTDFTLTISSLQSEDFADYFCQQYSRYPLTFGQGTKLEIK
notes: half-humanized control pairing; also called VH0/Vk1
The molecule B4 had a Kd in assay [1] of 4.03 nM. Further, the “Relative KD” value in assay [2] worked out at 0.73.

B5: humanized 5B9 variant VH3/VK1 (antibody, V domains shown)
VH: QVQLVQSGAEVKKPGASVKVSCKATGYTFSNYWIEWIKQAPGQGLEWIGEIFPGSGRINFNEKFKGRVTFTADTSISTTYMELSRLRSDDTAVYYCARTKIYGNSFDYWGQGTLVTVSS
VL: DIMMTQSPSFLSASVGDRVTITCKASQDVGTAVVWYQQKPGKAPKLLIYWASSRHEGVPDRFTGSGSGTDFTLTISSLQSEDFADYFCQQYSRYPLTFGQGTKLEIK
Consider B5, for which the affinity in assay [1], expressed as Kd, was 4.56 nM. For the same molecule, the “Relative KD” value in assay [2] turned out to be 0.82.

B6: IgG4(S241P)_N56E_VH5/Vκ4 (antibody, V domains shown)
VH: QVQLVQSGAEVKKPGASVKVSCKATGYTFSNYWIEWVRQAPGQGLEWMGEIFPGSGRINFNEKFKGRVTFTADTSISTAYMELSRLRSDDTAVYYCARTKIYGNSFDYWGQGTLVTVSS
VL: DIQMTQSPSSLSASVGDRVTITCRASQDVGTAVAWYQQKPGKAPKSLIYWASSRHEGVPSRFSGSGSGTDFTLTISSLQPEDFATYFCQQYSRYPLTFGQGTKLEIK
notes: humanized 5B9 variant with Vk4; also called VH5/Vk4
In the case of B6, in assay [1], the Kd was 76.8 nM. In addition, the “Relative KD” value in assay [2] was 13.9.

B7: humanized 5B9 variant VH2/VK1 (antibody, V domains shown)
VH: QVQLVQSGAEVKKPGASVKISCKATGYTFSNYWIEWIKQAPGQGLEWIGEIFPGSGRINFNEKFKGRATFTADTSIDTTYMELSRLRSDDTAVYYCARTKIYGNSFDYWGQGTLVTVSS
VL: DIMMTQSPSFLSASVGDRVTITCKASQDVGTAVVWYQQKPGKAPKLLIYWASSRHEGVPDRFTGSGSGTDFTLTISSLQSEDFADYFCQQYSRYPLTFGQGTKLEIK
In assay [1], B7 gave a Kd of 3.96 nM. The “Relative KD” value in assay [2] stood at 0.71.

B8: IgG4(S241P)_N56E_VH3/Vκ4 (antibody, V domains shown)
VH: QVQLVQSGAEVKKPGASVKVSCKATGYTFSNYWIEWIKQAPGQGLEWIGEIFPGSGRINFNEKFKGRVTFTADTSISTTYMELSRLRSDDTAVYYCARTKIYGNSFDYWGQGTLVTVSS
VL: DIQMTQSPSSLSASVGDRVTITCRASQDVGTAVAWYQQKPGKAPKSLIYWASSRHEGVPSRFSGSGSGTDFTLTISSLQPEDFATYFCQQYSRYPLTFGQGTKLEIK
notes: humanized 5B9 variant with Vk4, as IgG4; also called VH3/Vk4
Take B8: in assay [1], the affinity, expressed as Kd, was 75.2 nM. In addition, in assay [2], the “Relative KD” value was 13.6.

B9: humanized 5B9 variant VH1/VK2 (antibody, V domains shown)
VH: QVQLVQSGAELKKPGASVKISCKATGYTFSNYWIEWIKQAPGQGLEWIGEIFPGSGRINFNEKFKGRATFTADTSIDTTYMQLSSLTSDDSAVYYCARTKIYGNSFDYWGQGTTVTVSS
VL: DIQMTQSPSSLSASVGDRVTITCKASQDVGTAVVWYQQKPGKAPKLLIYWASSRHEGVPDRFSGSGSGTDFTLTISSLQPEDFADYFCQQYSRYPLTFGQGTKLEIK
In the case of B9, in assay [1], binding was characterised by a dissociation constant (Kd) of 4.01 nM. Moreover, in assay [2], the “Relative KD” value was determined as 0.72.

B10: humanized 5B9 variant VH4/VK1 (antibody, V domains shown)
VH: QVQLVQSGAEVKKPGASVKVSCKATGYTFSNYWIEWVRQAPGQGLEWIGEIFPGSGRINFNEKFKGRVTFTADTSISTTYMELSRLRSDDTAVYYCARTKIYGNSFDYWGQGTLVTVSS
VL: DIMMTQSPSFLSASVGDRVTITCKASQDVGTAVVWYQQKPGKAPKLLIYWASSRHEGVPDRFTGSGSGTDFTLTISSLQSEDFADYFCQQYSRYPLTFGQGTKLEIK
Consider B10, for which binding in assay [1] was put at a Kd of 4.62 nM. Further, in assay [2], the “Relative KD” value was found to be 0.83.

B11: humanized 5B9 variant VH1/VK3 (antibody, V domains shown)
VH: QVQLVQSGAELKKPGASVKISCKATGYTFSNYWIEWIKQAPGQGLEWIGEIFPGSGRINFNEKFKGRATFTADTSIDTTYMQLSSLTSDDSAVYYCARTKIYGNSFDYWGQGTTVTVSS
VL: DIQMTQSPSSLSASVGDRVTITCRASQDVGTAVVWYQQKPGKAPKLLIYWASSRHEGVPSRFSGSGSGTDFTLTISSLQPEDFATYFCQQYSRYPLTFGQGTKLEIK
On to B11, for which, in assay [1], the Kd worked out at 4.98 nM. For the same molecule, the “Relative KD” value in assay [2] stood at 0.9.

B12: IgG4(S241P)_N56E_VH1/Vκ0 (antibody, V domains shown)
VH: QVQLVQSGAELKKPGASVKISCKATGYTFSNYWIEWIKQAPGQGLEWIGEIFPGSGRINFNEKFKGRATFTADTSIDTTYMQLSSLTSDDSAVYYCARTKIYGNSFDYWGQGTTVTVSS
VL: DIMMTQSHKFMSTSVGDRVNITCKASQDVGTAVVWYQQKPGQSPKLLIYWASSRHEGVPDRFTGSGSGTDFTLTISNVQSEDLSDYFCQQYSRYPLTFGAGTKLELK
notes: half-humanized control pairing; also called VH1/Vk0
As to B12, the affinity in assay [1], expressed as Kd, was 4.5 nM. Besides, the “Relative KD” value in assay [2] came out at 0.81.

B13: humanized 5B9 variant VH5/VK1 (antibody, V domains shown)
VH: QVQLVQSGAEVKKPGASVKVSCKATGYTFSNYWIEWVRQAPGQGLEWMGEIFPGSGRINFNEKFKGRVTFTADTSISTAYMELSRLRSDDTAVYYCARTKIYGNSFDYWGQGTLVTVSS
VL: DIMMTQSPSFLSASVGDRVTITCKASQDVGTAVVWYQQKPGKAPKLLIYWASSRHEGVPDRFTGSGSGTDFTLTISSLQSEDFADYFCQQYSRYPLTFGQGTKLEIK
As for B13, the Kd in assay [1] came to 5.91 nM. Also, the “Relative KD” value in assay [2] turned out to be 1.07.
